{
  "source": "paper PMC5651819",
  "about": "“AtSPX1 affects the AtPHR1–DNA-binding equilibrium by binding monomeric AtPHR1 in solution” (Biochemical Journal, 2017)",
  "target": "T1, MBP–AtdPHR1 (DNA-binding domain and coiled-coil domain of AtPHR1 fused to maltose-binding protein) (Arabidopsis thaliana, UniProt Q94CL7 208-362)",
  "T1 construct": "cloned in pMAL-c2x via BamHI and HindIII; the methods print 208–362, and the predicted mass of 60 651 fits 208–362 with MBP; also called MBPdAtPHR1; MBPdPHR1; source: E. coli BL21-gold (DE3), purified (amylose resin, IEX on HiTrap Q-HP); not shown: MBP, N-terminal, kept",
  "T1 sequence (Q94CL7 208-362)": "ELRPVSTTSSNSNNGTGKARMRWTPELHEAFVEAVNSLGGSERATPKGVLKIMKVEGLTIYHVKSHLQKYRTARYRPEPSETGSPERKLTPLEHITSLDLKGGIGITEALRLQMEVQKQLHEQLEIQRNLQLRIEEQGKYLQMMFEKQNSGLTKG",
  "experiment": "pull-down; MBP–AtdPHR1 from cell lysate immobilised on amylose matrix and washed, incubated with affinity-purified GST–AtSPX1 for 2 h at 4°C, eluted with 10 mM maltose, anti-GST blot; buffer with Pi (PBS pH 7.4, 200 mM NaCl, 1 mM EDTA, 1 mM DTT), compared with buffer without Pi (20 mM Tris pH 7.5, 200 mM NaCl, 1 mM EDTA, 1 mM DTT)",
  "settings": "both partners purified",
  "data": [
    {"binder": "GST–AtSPX1 (N-terminal GST-tagged full-length AtSPX1) (natural protein, Arabidopsis thaliana, UniProt Q8LBH4 1-256, looked up, AtSPX1, Arabidopsis thaliana, At5G20150.1, full-length cDNA in pGEX-2T via BamHI and EcoRI; also called GST–SPX1; not shown: GST, N-terminal, kept) MKFGKSLSNQIEQTLPEWQDKFLSYKELKKRLKLIGSKTADRPVKRLRLDEFSVGISKEEINFIQLLEDELEKFNNFFVEKEEEYIIRLKEFRDRIAKAKDSMEKMIKIRKEIVDFHGEMVLLENYSALNYTGLVKILKKYDKRTGDLMRLPFIQKVLQQPFYTTDLLFKLVKESEAMLDQIFPANETESEIIQAELSEHKFMESLHMKSTIAALRVLKEIRSGSSTVSVFSLPPLQLNGLDETWKKIPLLEQEAK", "values": [
      {"measurement": "fold more in elution fraction E1 in the presence of phosphate than in its absence", "value": 1.5, "unit": "fold"},
      {"measurement": "fold more in elution fraction E2 in the presence of phosphate than in its absence", "value": 3.5, "unit": "fold"}
    ]}
  ]
}
